{"source": "IntAct's records for PubMed 24469400", "parents": {"B1": {"name": "Syntaxin-4 (Rattus norvegicus (Rat)), Q08850 (parent)", "chain": "MRDRTHELRQGDNISDDEDEVRVALVVHSGAARLSSPDDEFFQKVQTIRQTMAKLESKVRELEKQQVTILATPLPEESMKQGLQNLREEIKQLGREVRAQLKAIEPQKEEADENYNSVNTRMKKTQHGVLSQQFVELINKCNSMQSEYREKNVERIRRQLKITNAGMVSDEELEQMLDSGQSEVFVSNILKDTQVTRQALNEISARHSEIQQLERSIRELHEIFTFLATEVEMQGEMINRIEKNILSSADYVERGQEHVKIALENQKKARKKKVMIAICVSVTVLILAVIIGITITVG"}}}
{"variants_of": "B1", "details": "with vamp2_rat Vamp2, P63045"}
{"variant": "L173A;E174A", "effect of a mutation on the interaction": "increasing interaction strength"}
